Consider one molecule from patent publication US8476072B2, “Meganuclease recombination system” (Cellectis, priority 2008, dated 2013).

For the assay, the system named is cGPS CHO-K1 cells. The assay is described as follows: Gene targeting (KI assay) of lacZ integration matrix in cGPS CHO-K1 cells, double G418/puromycin selection. Format: cell-based. Particulars: cGPS CHO-K1, pTV-DS-lacz integration matrix, G418 + puromycin selection. As for the experimental part: Transfection: On D day, 0.5 μg of the pTV-DS-lacz (SEQ ID NO: 17) is transfected in cGPS CHO-K1 cells by using the PolyFect® reagent from Qiagen. One day after the transfection of the integration matrix (D+1), 1000 μg of the purified DPV15b/I-CreI N75/6× His (SEQ ID NO: 58) meganuclease protein is directly added into transfected cGPS CHO-K1 cells.
Selection: cGPS CHO-K1 cells are transfected with the protocol described above. 24 hours after transfection, the cells are washed and fresh medium supplemented with 0.6 mg/ml of G418 is added. After 10 days of G418 selection, the culture medium is replaced with complete medium supplemented with G418 at 0.6 mg/ml and puromycin at 10 μg/ml. 3 to 4 days later, double resistant clones are visualized through an inverted microscope. At this step, double resistant clones are either stained for lacz expression monitoring or picked up for amplification and molecular characterization. (see section 2.5)
X-gal staining: Culture medium is removed and LacZ-targeted double resistant cGPS CHO-K1 adherent cells are washed once with PBS. 5 ml of fixing buffer (100 mM phosphate buffer, 1 mM MgCl2, 0.5% (v/v) glutaraldehyde (Prolabo, 25% solution)) is added. After 10 min. of incubation on ice, fixing is replaced by 5 ml of washing buffer (100 mM phosphate buffer, 1 mM MgCl2, 0.02% (v/v) NP40). […]

B1: DPV15b/I-CreI N75/6× His: purified recombinant I-CreI N75 meganuclease with cell-penetrating peptide DPV15b fused at N-terminal and 6x histidine tag at C-terminal (protein)
chain: MGAYDLRRRERQSRLRRRERQSRNTKYNKEFLLYLAGFVDGDGSIIAQIKPNQSYKFKHQLSLTFQVTQKTQRRWFLDKLVDEIGVGYVRDRGSVSNYILSEIKPLHNFLTQLQPFLKLKQKQANLVLKIIEQLPSAKESPDKFLEVCTWVDQIAALNDSKTRKTTSETVRAVLDSLSEKKKSSPAAALEHHHHHH
Take B1: the “number of double resistant cell colonies generated” value is “around 30” and the selection frequency is 3×10^−4.
